# Results as given in patent US8283162 (AbbVie / Abbott, dated 2012).
# Bridges are numbered along the chain shown (N, C = ends). Where no end group is shown, it is not given here.
# T1: Alexa-488 labeled PIVKAII Gla domain peptide (13-27) (disulfide 5-10; also: Alexa Fluor 488 label, site not given here)
# T1 construct: also called Alexa488-PIVKAII peptide (13-27 cyc); Alexa488-PIVKA-II (13-27)
# T1 peptide: LERECVEETCSYEEA
# B1: Gla domain Factor X peptide (sequence 12) (peptide)
# peptide: LERECMEETCSYEEA
# notes: Synthetic 15-mer homologous to PIVKA-II 13-27, with plain Glu; also called PIVKAII Gla domain (13-27) analog
# B2: Gla domain Protein Z peptide (sequence 16) (peptide)
# peptide: LEKECYEEICVYEEA
# notes: as for B1
# B3: Gla domain Protein S peptide (sequence 15) (peptide)
# peptide: LERECIEELCNKEEA
# notes: as for B1
# B4: Gla domain Factor VII peptide (sequence 13) (peptide)
# peptide: LERECKEEQCSFEEA
# notes: as for B1
# B5: Gla domain Protein C peptide (sequence 14) (peptide)
# peptide: LERECIEEICDFEEA
# notes: as for B1
# B6: Gla domain Factor IX peptide (sequence 11) (peptide)
# peptide: LERECMEEKCSFEEA
# notes: as for B1
# B7: monoclonal antibody 3C10 (antibody, V domains shown)
# VH: EVQLVESGGDLVKPGGSLKLSCAASGFTFSSYGMSWVRQTPDKRLEWVATISRGGSSTYYPDSVKGRFTISRDNAKNNLYLQMSSLKSEDTAMYYCASLNYGNFFDYWGQGTTLTVSS
# VL: DVVMTQTPLSLPVSLGDQASISCRSSQSLVHSNGNTYLHWYLQKPGQSPKLLIYKVSNRFSGVPDRFSGSGSGTDFTLKISRVEAEDLGVYFCSQNRHVPPTFGGGTKLEIKR
# Molecular target: B7
# Test: FCS competition: 2 nM Alexa488-PIVKAII (13-27) premixed with 10 nM mAb 3C10, analog peptide added, overnight; D of the tracer; negative control 47±4 (no displacement), positive control 174±10
row,Apparent Diffusion Coefficient (D) [um^2/sec],Binder
1,52,B1
2,51,B2
3,50,B3
4,49,B4
5,53,B5
6,48,B6

# Molecular target: T1, Alexa-488 labeled PIVKAII Gla domain …
# Test: fluorescence quenching titration (FRET): 0.05 nM Alexa488 PIVKAII peptide (13-27), BHQ-labelled mAb 3C10 varied, quenching against free antibody binding sites, simple binding model
row,Kd [pM],Binder
1,100,B7
